Laboratory results taken from the nanobody polyreactivity screen of Harvey et al. (2022).

Experiment: yeast display, Sf9 membrane polyspecificity reagent, FACS + sequencing; frameworks hold sequencing errors
Summary of the method: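 Nanobodies from a synthetic yeast display library (Saccharomyces cerevisiae BJ5465), induced 36–48 hours with galactose, were stained 1 hour at 4 °C with 10% biotinylated, detergent-solubilized Sf9 membrane reagent, enriched on streptavidin microbeads, then FACS-sorted. Anti-HA (expression) and streptavidin (reagent binding) fluorescence set low and high (top ~1%) gates. Polyreactivity labels come from the gate of origin. Genes were colony-PCR amplified, MiSeq 2 × 250 sequenced and filtered by CDR length.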
With “QVQLVETGGGLVQAGGSLRLSCAASGRIIRYNAMGWYSQAPGKERELVAAISTRGGNTYYADSVKGRFTISRDNAKNTVYLQMNSLKPEDTAVYYCNARSSLPYNYWGQGTQVTVSS” the “polyreactivity (PSR sort gate)” value was “high polyreactivity”. In the case of “QVQLVESGGGLVQAGGSLRLSCAASGSTFAKNAMGWYRQAPGKERELVAAITYSGGSTYYADSVKGRFTISRDYAKNTVYLEMYSLKPEYTAVYYCAADVWWSYFRYDYWGQGTQVTVSW”, the “polyreactivity (PSR sort gate)” value is reported as “low polyreactivity”. For “QVQLVESGGGLVQAGGSLRLSCAASGSTFSGNAMGWYRQAPGKERELVASITDGGNTYYADSVKGRFTISRDNAKNTVYLQMNSLKPEDTAVYYCAAEILWGGYDYWGQGTQVTVSS”, the “polyreactivity (PSR sort gate)” value was “low polyreactivity”. For “QVQLVESGGGIVQAGGSLRLSCAASGITFPANAMGWYRQAPGKERELVADISESDGSTYYADSVKGRFTISRDNAKNTVYLQMNSLKPEDTAVYYCAADGTSGTRSDYWGQGTQVTVSS”, the “polyreactivity (PSR sort gate)” value was “low polyreactivity”. For “QVQLVESGGGLVQAGGSLRLSCAASGRTFTAYAMGWYRQAPGKERELVAAITTSGGTTYYADSVKGRFTISRDNAKNTVYLQMNSLKPEDTAVYYCAADVVVSWWLIYDYWGQGTQVTVSS”, the “polyreactivity (PSR sort gate)” value was “low polyreactivity”. In the case of “QVQLVESGGGLVQAGGSLRLSCAASGLIFNKYTMGWYRQAPGTERELVAAISKSGGSTYYADSVKGRFTISRDNAKNTVYLQMNSLKPEDTAVYYCNRVTHYIRFDYWGQGTQVTGSS”, the “polyreactivity (PSR sort gate)” value is reported as “low polyreactivity”. With “QVQLVESGGGLVQAGGSLRLSCAASGRIFYKYAMGWYRPAPGKERELVASITRSGTSTDYADSVKGRFTISRDNAKNTVYLQMNSLKPEDTADYYCAKRFFSLNGYGYDYWGLGTQVTVSS” the “polyreactivity (PSR sort gate)” value was “high polyreactivity”. With “QVQIVESGGGLVQAGGSLRLSCAASGRILWFYAMGWYRHAPGKERELVAAITDSGGSTYYADSVKGRFTISRDNAKNPVYLQMNSLKPEDTAVYYCAADGDRYISGGGLAHYDYWGQGTQVNVSS” the “polyreactivity (PSR sort gate)” value was “low polyreactivity”. In the case of “QVQLVESGGGLVQAGGSLRFSCAASGSIFHYYAMGWYRQAPGKERELVAAISGGSRTKYADSVKGRFTISRDNAKNTVYLQMNSLKPEDTAVYYCAKRYYYPYRYYYWGQGTQVTVSS”, the “polyreactivity (PSR sort gate)” value is reported as “high polyreactivity”. For “QVQLVESGGGLVQAGGSLRLSCAASGSIFYGYAMGWYRQAPGKERELVAAITGGGSTNYADSVKGRFTISRDNAKNTVYLQMNSLKPEDTAVYYCAAAPVSLPDYGYWGQGTQVTVSS”, the “polyreactivity (PSR sort gate)” value was “low polyreactivity”. With “QVQLQESGGGLVQAGGSLRLGCAASGYISGFNEMGWYRQAPGKERELDAAITNGGISNYADSVKGRFTISRDNAKNTVYLQMNSLKPEDTAMYYCAAGDFDQSNHAYWGQDTQVTVSS” the “polyreactivity (PSR sort gate)” value was “high polyreactivity”. For “QVQLVESGGGLVQGGGSLRLRCAASGRSFKWYAMVWYRQAPGKDRELVAGISRGAGRTYYADSEKGRFTISRDNAKNTVYLQMNSLKADDTAVYYCAAVPSYHSTSPFYYWGLGTQVTVSS”, the “polyreactivity (PSR sort gate)” value was “high polyreactivity”. With “QVQLVESGGGLVQAGGSLRLSCAASGSTFSNNAMGWYRQAPGKERELVASTNYADSVKGRFTISRDNAKNTVYLQMNSLKPEDTAVYYCAAGAYPSWGHDYWGQGTQVTVSS” the “polyreactivity (PSR sort gate)” value was “low polyreactivity”. For “QVQLVESGGRLVQAGGSLRLSCAASGSIFGFNAMGWYRQAPGKERELVAAIIYGGSTNYADSVKGRFTISRDNEKNTVYLQMNSQKPEDTAVYYCAARLNYIRRGYWGQGTQVTVSS”, the “polyreactivity (PSR sort gate)” value was “high polyreactivity”. In the case of “QVQLVESGGGLVQAGVSLRLSCDASGSILRENAMGWYRQAPGKERELVAVITRGGNTYYADSVKGRFTISRDNAKNTVYLQMNSLKPEDTAVYYCAAKRRERYGLTYGYWGQGTQVTVSS”, the “polyreactivity (PSR sort gate)” value is reported as “high polyreactivity”. For “QVQLVESGGGLVQAGGSLRLSCAASGLIFRYYVMGWYRQAPGKERDFVASISYSGGRTYYADSVKGRFTISRDYAKNTVYLQMNRLKPEDTAVYYCAGGYYYHRYSYPGDYWGQGTQVTVSS”, the “polyreactivity (PSR sort gate)” value was “high polyreactivity”. With “QVQLVESGGGLVQAGGSLRLSCAASGRIFDIYAMGWYRQAPGKERELVAGITSVGSTNYADSVKGRFTISRDNAKNTVYLQMNSLKPEDTAVYYCAADTSVHSEVDYWGQGTQVTVSS” the “polyreactivity (PSR sort gate)” value was “low polyreactivity”.
